These are literature values, as cited in article PMC9898751 (The Journal of Biological Chemistry, 2022).

For data set [1], the system named is histone peptide bearing H3K4me3 and H3K9me2 in cis. Particulars: in contrast to PHF8; ref [28].
For data set [2] the following is noted: phosphorylation by protein kinase A; ref [29].
The subject of data set [3] is peptide substrates. Particulars: mass spectrometry– and fluorescence-based demethylase assays on peptide substrates; ref [28].
The subject of data set [4] is H3K9me2. Particulars: H3K4me3 present in cis; ref [35].
In data set [5] the test system is H3K27me2. Particulars: H3K4me3 present in cis; ref [35].

B1: PHF2: KDM7 family Jumonji demethylase (protein, UniProt O75151 1-1096, looked up)
Lysine-specific demethylase …: MATVPVYCVCRLPYDVTRFMIECDACKDWFHGSCVGVEEEEAPDIDIYHCPNCEKTHGKSTLKKKRTWHKHGPGQAPDVKPVQNGSQLFIKELRSRTFPSAEDVVARVPGSQLTLGYMEEHGFTEPILVPKKDGLGLAVPAPTFYVSDVENYVGPERSVDVTDVTKQKDCKMKLKEFVDYYYSTNRKRVLNVTNLEFSDTRMSSFVEPPDIVKKLSWVENYWPDDALLAKPKVTKYCLICVKDSYTDFHIDSGGASAWYHVLKGEKTFYLIRPASANISLYERWRSASNHSEMFFADQVDKCYKCIVKQGQTLFIPSGWIYATLTPVDCLAFAGHFLHSLSVEMQMRAYEVERRLKLGSLTQFPNFETACWYMGKHLLEAFKGSHKSGKQLPPHLVQGAKILNGAFRSWTKKQALAEHEDELPEHFKPSQLIKDLAKEIRLSENASKAVRPEVNTVASSDEVCDGDREKEEPPSPIEATPPQSLLEKVSKKKTPKTVKMPKPSKIPKPPKPPKPPRPPKTLKLKDGGKKKGKKSRESASPTIPNLDLLEAHTKEALTKMEPPKKGKATKSVLSVPNKDVVHMQNDVERLEIREQTKSKSEAKWKYKNSKPDSLLKMEEEQKLEKSPLAGNKDNKFSFSFSNKKLLGSKALRPPTSPGVFGALQNFKEDKPKPVRDEYEYVSDDGELKIDEFPIRRKKNAPKRDLSFLLDKKAVLPTPVTKPKLDSAAYKSDDSSDEGSLHIDTDTKPGRNARVKKESGSSAAGILDLLQASEEVGALEYNPSSQPPASPSTQEAIQGMLSMANLQASDSCLQTTWGAGQAKGSSLAAHGARKNGGGSGKSAGKRLLKRAAKNSVDLDDYEEEQDHLDACFKDSDYVYPSLESDEDNPIFKSRSKKRKGSDDAPYSPTARVGPSVPRQDRPVREGTRVASIETGLAAAAAKLSQQEEQKSKKKKSAKRKLTPNTTSPSTSTSISAGTTSTSTTPASTTPASTTPASTSTASSQASQEGSSPEPPPESHSSSLADHEYTAAGTFTGAQAGRTSQPMAPGVFLTQRRPSASSPNNNTAAKGKRTKKGMATAKQRLGKILKIHRNGKLLL
As to B1, the “activity on single histone peptide bearing H3K4me3 and H3K9me2 in cis” value in data set [1] was “cannot act on a single histone peptide bearing H3K4me3 and H3K9me2 in cis”. The activity before phosphorylation result in data set [2] was “remains inactive until it is phosphorylated by protein kinase A”. In addition, in data set [3], the “enzymatic activity in vitro” value was “enzymatically inactive in vitro”.

B2: KIAA1718: KDM7 family Jumonji demethylase (protein, UniProt Q6ZMT4 1-941, looked up)
Lysine-specific demethylase 7A: MAGAAAAVAAGAAAGAAAAAVSVAAPGRASAPPPPPPVYCVCRQPYDVNRFMIECDICKDWFHGSCVGVEEHHAVDIDLYHCPNCAVLHGSSLMKKRRNWHRHDYTEIDDGSKPVQAGTRTFIKELRSRVFPSADEIIIKMHGSQLTQRYLEKHGFDVPIMVPKLDDLGLRLPSPTFSVMDVERYVGGDKVIDVIDVARQADSKMTLHNYVKYFMNPNRPKVLNVISLEFSDTKMSELVEVPDIAKKLSWVENYWPDDSVFPKPFVQKYCLMGVQDSYTDFHIDFGGTSVWYHVLWGEKIFYLIKPTDENLARYESWSSSVTQSEVFFGDKVDKCYKCVVKQGHTLFVPTGWIHAVLTSQDCMAFGGNFLHNLNIGMQLRCYEMEKRLKTPDLFKFPFFEAICWFVAKNLLETLKELREDGFQPQTYLVQGVKALHTALKLWMKKELVSEHAFEIPDNVRPGHLIKELSKVIRAIEEENGKPVKSQGIPIVCPVSRSSNEATSPYHSRRKMRKLRDHNVRTPSNLDILELHTREVLKRLEMCPWEEDILSSKLNGKFNKHLQPSSTVPEWRAKDNDLRLLLTNGRIIKDERQPFADQSLYTADSENEEDKRRTKKAKMKIEESSGVEGVEHEESQKPLNGFFTRVKSELRSRSSGYSDISESEDSGPECTALKSIFTTEESESSGDEKKQEITSNFKEESNVMRNFLQKSQKPSRSEIPIKRECPTSTSTEEEAIQGMLSMAGLHYSTCLQRQIQSTDCSGERNSLQDPSSCHGSNHEVRQLYRYDKPVECGYHVKTEDPDLRTSSWIKQFDTSRFHPQDLSRSQKCIRKEGSSEISQRVQSRNYVDSSGSSLQNGKYMQNSNLTSGACQISNGSLSPERPVGETSFSVPLHPTKRPASNPPPISNQATKGKRPKKGMATAKQRLGKILKLNRNGHARFFV
As to B2, the “activity on H3K9me2 with H3K4me3 in cis” value in data set [4] is “inactive on H3K9me2 when H3K4me3 is present in cis”. Moreover, the “activity toward H3K27me2 with H3K4me3 in cis” value in data set [5] is “more selective toward H3K27me2”.
